Ends that are not written are not given here.
Tests used:
[1] = biological target: T1, fibrinogen hole 'a' and hole 'b' (Homo sapiens, UniProt P02675+P02679); settings: cited from earlier work
T1 sequence (P02679 27-433 limits assumed): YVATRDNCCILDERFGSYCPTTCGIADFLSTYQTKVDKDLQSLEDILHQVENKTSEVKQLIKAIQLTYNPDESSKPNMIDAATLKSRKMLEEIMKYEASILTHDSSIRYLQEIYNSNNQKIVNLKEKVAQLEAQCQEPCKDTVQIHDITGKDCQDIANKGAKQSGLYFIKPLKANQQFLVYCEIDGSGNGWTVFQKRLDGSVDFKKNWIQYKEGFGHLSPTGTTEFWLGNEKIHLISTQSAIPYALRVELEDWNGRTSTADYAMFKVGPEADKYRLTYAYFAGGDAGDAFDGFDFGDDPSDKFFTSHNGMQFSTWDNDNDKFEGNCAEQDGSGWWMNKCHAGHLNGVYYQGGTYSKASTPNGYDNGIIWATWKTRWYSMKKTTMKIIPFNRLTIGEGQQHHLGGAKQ
T1 sequence (P02675 31-491): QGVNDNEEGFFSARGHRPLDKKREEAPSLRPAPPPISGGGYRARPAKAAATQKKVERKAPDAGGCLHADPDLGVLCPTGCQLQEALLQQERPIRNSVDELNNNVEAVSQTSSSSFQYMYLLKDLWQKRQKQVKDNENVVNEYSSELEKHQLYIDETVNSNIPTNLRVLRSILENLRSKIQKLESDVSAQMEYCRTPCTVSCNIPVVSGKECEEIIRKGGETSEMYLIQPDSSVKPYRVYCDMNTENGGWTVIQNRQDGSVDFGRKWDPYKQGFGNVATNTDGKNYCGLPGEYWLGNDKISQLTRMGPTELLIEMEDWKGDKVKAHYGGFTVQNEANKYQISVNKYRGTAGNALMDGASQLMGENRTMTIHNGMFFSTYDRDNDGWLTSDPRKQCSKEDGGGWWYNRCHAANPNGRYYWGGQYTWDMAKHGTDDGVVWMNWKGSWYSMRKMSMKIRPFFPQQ
T1 sequence (P02671 20-629 partner limits assumed): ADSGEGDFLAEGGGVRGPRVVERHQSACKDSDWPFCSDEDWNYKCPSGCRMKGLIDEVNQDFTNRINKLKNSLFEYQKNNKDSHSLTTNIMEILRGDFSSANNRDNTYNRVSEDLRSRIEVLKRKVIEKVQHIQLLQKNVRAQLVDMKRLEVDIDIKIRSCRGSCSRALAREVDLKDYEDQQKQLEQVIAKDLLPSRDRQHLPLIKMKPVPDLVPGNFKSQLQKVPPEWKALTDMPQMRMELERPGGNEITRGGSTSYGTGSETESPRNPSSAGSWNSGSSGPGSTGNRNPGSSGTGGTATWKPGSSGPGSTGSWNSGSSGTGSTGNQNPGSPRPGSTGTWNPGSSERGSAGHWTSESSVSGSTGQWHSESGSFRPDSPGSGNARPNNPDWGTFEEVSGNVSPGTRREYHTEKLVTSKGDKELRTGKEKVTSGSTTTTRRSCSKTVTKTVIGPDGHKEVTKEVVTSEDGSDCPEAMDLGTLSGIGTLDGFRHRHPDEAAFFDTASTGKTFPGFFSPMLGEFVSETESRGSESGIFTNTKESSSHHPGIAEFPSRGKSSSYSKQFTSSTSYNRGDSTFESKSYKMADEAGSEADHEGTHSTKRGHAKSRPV

[2] = biological target: T2, purified human fibrinogen (Homo sapiens, UniProt P02675+P02679); assay: Polymerisation (clotting) of purified fibrinogen, Sigma Amelung KC4 Delta coagulation analyser; assay type: biochemical
T2 sequence (P02679 27-433 limits assumed): T1 sequence (P02679 27-433 limits assumed)
T2 sequence (P02675 31-491): T1 sequence (P02675 31-491)
T2 sequence (P02671 20-629 partner limits assumed): T1 sequence (P02671 20-629 partner limits assumed)
Protocol: The ability of Peptide Dendrimer No. 12 to polymerise fibrinogen was assessed. 30 μl of dendrimer in solution, at concentration ranging from 0.005-2 mg/ml, was added to 100 μl purified human fibrinogen at 3 mg/ml (the level of fibrinogen found in the blood). Polymerisation of fibrinogen was analysed using a Sigma Amelung KC4 Delta coagulation analyser.
The concentration of each dendrimer was varied from 0.005-0.5 mg/ml.

[3] = biological target: T3, fibrinogen in human plasma (Homo sapiens, UniProt P02675+P02679); assay: Polymerisation of fibrinogen in human plasma, KC4 Delta coagulation analyzer; assay type: biochemical; settings: dendrimer 0.25 mg/ml, 30 μL to 100 μL human plasma, 37° C.
T3 construct: from tissue; host or cells: human plasma
T3 sequence (P02679 27-433 limits assumed): T1 sequence (P02679 27-433 limits assumed)
T3 sequence (P02675 31-491): T1 sequence (P02675 31-491)
T3 sequence (P02671 20-629 partner limits assumed): T1 sequence (P02671 20-629 partner limits assumed)
Protocol: 30 μL of each dendrimer (at a concentration of 0.25 mg/ml) was added to 100 μL human plasma at 37° C., and polymerisation of fibrinogen was determined using a Sigma Amelung KC4 Delta coagulation analyzer.

human fibrinogen = biological target: T4, human fibrinogen (Homo sapiens, UniProt P02675+P02679); assay: Clotting activity of dendrimers extracted from gelatin paste after gamma irradiation and storage; assay type: biochemical; settings: fibrinogen 3 mg/ml, 37° C.
T4 sequence (P02679 27-433 limits assumed): T1 sequence (P02679 27-433 limits assumed)
T4 sequence (P02675 31-491): T1 sequence (P02675 31-491)
T4 sequence (P02671 20-629 partner limits assumed): T1 sequence (P02671 20-629 partner limits assumed)
Protocol: 2 ml of solution of Peptide Dendrimer No. 12 or 13 was mixed with SURGIFLO Haemostatic Matrix (a hydrated flowable gelatin matrix) to form a paste of each peptide. Each paste was sterilised by irradiation with ^60Co gamma rays at a dose of 30 kGy, and then stored at room temperature. Samples of the sterilised pastes were used for testing after storage for two and four weeks.
After storage, peptide dendrimers were extracted from each paste using […] HEPES buffer. 30 μL of each extract (with a peptide concentration of about 0.25 mg/ml) was added to 100 μL of human fibrinogen at 3 mg/ml, and the ability of each dendrimer to polymerise fibrinogen (the ‘clotting’ activity) at 37° C. was determined using a Sigma Amelung KC4 Delta coagulation analyser. The polymerisation activity of non-irradiated control samples was also determined.

human fibrinogen (human) = human fibrinogen (human) (UniProt P02671); assay: cell-based or functional assay

Question: Which “binding preference for hole 'a' / hole 'b' of fibrinogen” value [1] does the source give for GFIRPY here?
Answer: The value was “binds strongly and preferentially to the ‘b’ hole of fibrinogen”.

Question: For GPRP, which “binding preference for hole 'a' / hole 'b' of fibrinogen” value [1] is on record?
Answer: The value was “binds strongly and preferentially to the ‘a’ hole of fibrinogen”.

Question: For GPRPFPA (listed as Homo sapiens), which “binding preference for hole 'a' / hole 'b' of fibrinogen” value [1] is on record?
Answer: Its value is “binds with high preference for hole ‘a’ in fibrinogen”.

Question: Which “binding preference for hole 'a' / hole 'b' of fibrinogen” value [1] does the source give for GPRPG (listed as Homo sapiens) here?
Answer: Its value is “binds to hole ‘a’ and hole ‘b’ of fibrinogen, but with some preference for hole ‘a’”.

Question: For “Peptide Conjugate No. 1 (peptide 1 GPRP; peptide 2 GPRP; also: peptide conjugate of two chains, linkage not given here)”, which “activity of mixtures of peptide conjugate (2 mg/ml) with Peptide Dendrimer No. 3 or 4 in copolymerising with fibrinogen” value ([2]; conjugate 2 mg/ml, dendrimer 0.025-0.5 mg/ml) is on record?
Answer: The value was “not active”.

Question: Which “copolymerisation with fibrinogen (clotting time)” value ([2]; dendrimer 0.005-2 mg/ml, fibrinogen 3 mg/ml) does the source give for “Peptide Dendrimer No. 12 (peptide GPRPG; chain KKKKK)” here?
Answer: The value was “able to copolymerise with fibrinogen almost instantaneously, even at very low concentrations”.

Question: What about the “clotting time at high dendrimer concentration” value ([2]; dendrimer concentrations above 0.5 mg/ml, fibrinogen 3 mg/ml) of the same molecule?
Answer: Its value is “increase in clotting time”.

Question: And the clotting ([2]; dendrimer range ~0.02-0.5 mg/ml)?
Answer: Its clotting is “almost instantaneous clotting”.

Question: What about the “ability to polymerise fibrinogen in human plasma” value [3] of the same molecule?
Answer: The value was “able to polymerise fibrinogen in human plasma”.

Question: What about the “clotting time in human plasma” value [3] of the same molecule?
Answer: The value was “less than one”.

Question: And the “Clotting activity, Non-irradiated control” value (human fibrinogen; extract from SURGIFLO paste, about 0.25 mg/ml peptide, not irradiated)?
Answer: Its value is 1 s.

Question: And the “Clotting activity, Storage for 2 weeks post irradiation” value (human fibrinogen; paste irradiated 30 kGy 60Co gamma, stored 2 weeks at room temperature, about 0.25 mg/ml)?
Answer: The value was 1 s.

Question: What about the “Clotting activity, Storage for 4 weeks post irradiation” value (human fibrinogen; paste irradiated 30 kGy 60Co gamma, stored 4 weeks at room temperature, about 0.25 mg/ml) of the same molecule?
Answer: The value was 1 s.

B1: Peptide Dendrimer No. 12 (peptide, from a related filing, part only)
peptide: GPRPG
chain: KKKKK
modifications: also: five-arm dendrimer, all arms GPRPG, C-termini attached to branched core
Question: For B1, which Clotting activity (seconds), non-irradiated control; extract about 0.25 mg/ml with human fibrinogen 3 mg/ml, 37° C. (human fibrinogen (human)) is on record?
Answer: The Clotting activity (seconds), non-irradiated control; extract about 0.25 mg/ml with human fibrinogen 3 mg/ml, 37° C. was 1 s.

Question: And the Clotting activity (seconds), storage for 2 weeks post irradiation (30 kGy); extract about 0.25 mg/ml with human fibrinogen 3 mg/ml, 37° C. (human fibrinogen (human))?
Answer: The Clotting activity (seconds), storage for 2 weeks post irradiation (30 kGy); extract about 0.25 mg/ml with human fibrinogen 3 mg/ml, 37° C. was 1 s.

Question: And the Clotting activity (seconds), storage for 4 weeks post irradiation (30 kGy); extract about 0.25 mg/ml with human fibrinogen 3 mg/ml, 37° C. (human fibrinogen (human))?
Answer: The Clotting activity (seconds), storage for 4 weeks post irradiation (30 kGy); extract about 0.25 mg/ml with human fibrinogen 3 mg/ml, 37° C. was 1 s.

Question: What about the clotting time in human plasma, dendrimer 0.25 mg/ml, 37° C., coagulation analyser (human fibrinogen (human)) of the same molecule?
Answer: Its clotting time in human plasma, dendrimer 0.25 mg/ml, 37° C., coagulation analyser is less than 1 s.

From patent US20180140739A1, “HAEMOSTATIC DEVICE” (HAEMOSTATIX LIMITED, priority 2015, published 2018)
